Measurements as given in patent US7167802.

Experiments:
[1] = test system: MK2 41-364 (unphosphorylated, constitutively active)
[2] = test system: MK2 41-400 (unphosphorylated)
Sequence of MK2 41-400 (unphosphorylated) (chain, as listed by the source): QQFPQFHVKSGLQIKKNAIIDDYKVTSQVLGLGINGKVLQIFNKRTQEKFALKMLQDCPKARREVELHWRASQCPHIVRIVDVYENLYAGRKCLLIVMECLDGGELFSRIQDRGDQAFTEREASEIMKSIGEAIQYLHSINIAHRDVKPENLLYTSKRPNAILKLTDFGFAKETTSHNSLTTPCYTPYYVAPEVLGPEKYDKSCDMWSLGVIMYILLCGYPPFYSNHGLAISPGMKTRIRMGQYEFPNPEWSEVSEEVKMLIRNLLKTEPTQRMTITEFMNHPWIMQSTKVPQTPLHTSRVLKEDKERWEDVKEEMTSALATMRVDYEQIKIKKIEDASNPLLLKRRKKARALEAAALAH

## Activated p38 MAP kinase
[1]
  Vmax of the MK2 construct after activation by p38 (0.076 without p38): 11 µmol/min/mg
[2]
  Vmax of the MK2 construct after activation by p38 (no activity without p38): 8.9 µmol/min/mg
